Read-outs that look alike come from different tables or passages of the source. Non-standard residues stand in square brackets, D forms with d. No end group written: not given here. hArg = N=C(N)NCCCC[C@H](N)C(=O)O; Orn = NCCC[C@H](N)C(=O)O
T1: human GHRH receptor (human, UniProt Q02643 23-423)
T1 sequence (looked up): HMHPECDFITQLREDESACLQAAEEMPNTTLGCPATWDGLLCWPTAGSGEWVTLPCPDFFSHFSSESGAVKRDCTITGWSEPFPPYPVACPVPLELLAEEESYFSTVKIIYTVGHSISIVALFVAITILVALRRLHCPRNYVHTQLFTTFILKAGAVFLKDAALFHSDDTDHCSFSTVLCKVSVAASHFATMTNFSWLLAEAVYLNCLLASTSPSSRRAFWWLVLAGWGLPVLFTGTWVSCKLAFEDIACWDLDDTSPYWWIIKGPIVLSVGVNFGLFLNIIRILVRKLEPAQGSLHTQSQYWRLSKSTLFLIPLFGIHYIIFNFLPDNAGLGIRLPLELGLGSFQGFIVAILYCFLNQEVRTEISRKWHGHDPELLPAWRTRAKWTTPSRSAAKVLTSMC

B1: Analog 15 (C9) (peptide)
peptide: Y[dA]DAIFTACYR[Orn]VLAQLSAR[Orn]ALQDILS[hArg]-NH2
modifications: not fully specified (residue 9); printed as YaDAIFTAC(Peg-5K)YROVLAQLSAROALQDILS(Har)-NH2

Key:
[1] = biological target: T1, human GHRH receptor; test: cell-based or functional assay
[2] = biological target: T1, human GHRH receptor; test: cell-based or functional assay; remark: listed apart in the source

EC50 (nM), Hit Hunter cAMP agonist assay [1] [nM] | Max Response (%) [1] [%] | Potency (%) (% EC50 compared to baseline) [1] | EC50 (nM), Hit Hunter cAMP agonist assay [2] [nM] | Max. response (%) [2] [%] | Potency (%) (% EC50 compared to baseline) [2] | Binder
0.25 | 100 | 143 |  |  |  | Y[dA]DAIFTASYR[Orn]VLAQLSAR[Orn]C(PEG 2 kDa)LQDILSKN-NH2 [Analog 3 (C22)]
 |  |  | 0.47 | 97.2 | 314 | Y[dA]DAIFTAC(PEG 2 kDa)YR[Orn]VLAQLSAR[Orn]ALQDILSRNC(PEG 2 kDa)-NH2 [Analog 11 (C9,31)]
 |  |  | 0.41 | 103 | 361 | Y[dA]DAIFTAC(PEG 2 kDa)YR[Orn]VLAQLSAR[Orn]ALC(PEG 2 kDa)DILSRN-NH2 [Analog 13 (C9,24)]
0.29 | 102 | 123 |  |  |  | Y[dA]DAIFTAC(PEG 2 kDa)YR[Orn]VLAQLSAR[Orn]ALQDILSKN-NH2 [Analog 6 (C9)]
 |  |  | 0.73 | 97.2 | 203 | Y[dA]DAIFTAC(PEG 2 kDa)YR[Orn]VLAQLSAR[Orn]C(PEG 2 kDa)LQDILSRN-NH2 [Analog 14 (C9,22)]
0.28 | 108 | 130 |  |  |  | Y[dA]DAIFTASYR[Orn]VLAQLSAR[Orn]ALC(PEG 2 kDa)DILSKN-NH2 [Analog 2 (C24)]
1.38 | 107 | 26 |  |  |  | Y[dA]DAIFTASYR[Orn]VLC(PEG 2 kDa)QLSAR[Orn]ALQDILSKN-NH2 [Analog 5 (C15)]
 | 104 | 100 |  | 113 | 100 | YADAIFTNSYRKVLGQLSARKLLQDIMSX (C-terminal amide) [Human GHRH1-29]
 |  |  |  | 102 | 416 | Y[dA]DAIFTAC(PEG 2 kDa)YR[Orn]VLAQLSAR[Orn]ALQDILC(PEG 2 kDa)RN-NH2 [Analog 12 (C9,28)]
0.98 | 106 | 37 |  |  |  | Y[dA]DAIFTASYR[Orn]VLAQLSAR[Orn]ALQDC(PEG 2 kDa)LSKN-NH2 [Analog 8 (C26)]
 |  |  | 0.74 | 93.7 | 200 | Y[dA]DAIFTAC(PEG 40 kDa)YR[Orn]VLAQLSAR[Orn]ALQDILS[hArg]-NH2 [Analog 16 (C9)]
 |  |  | 0.22 | 94.3 | 669 | B1
1.32 | 94.9 | 27 |  |  |  | Y[dA]DAIFTASYR[Orn]VLAQLSC(PEG 2 kDa)R[Orn]ALQDILSKN-NH2 [Analog 4 (C19)]
0.69 | 108 | 52 |  |  |  | Y[dA]DAIFTC(PEG 2 kDa)SYR[Orn]VLAQLSAR[Orn]ALQDILSKN-NH2 [Analog 7 (C8)]
0.92 | 107 | 39 |  |  |  | Y[dA]DAIFTASYR[Orn]VLAC(PEG 2 kDa)LSAR[Orn]ALQDILSKN-NH2 [Analog 9 (C16)]
0.29 | 105 | 125 |  |  |  | Y[dA]DAIFTASYR[Orn]VLAQLSAR[Orn]ALQDILC(PEG 2 kDa)KN-NH2 [Analog 1 (C28)]
 |  |  | 0.11 | 96.2 | 1400 | Y[dA]DAIFTAC(PEG 2 kDa)YR[Orn]VLAQLSAR[Orn]ALQDILS[hArg]-NH2 [Analog 10 (C9)]
